Results taken from patent US20080187548A1 (LUDWIG INSTITUTE FOR CANCER RESEARCH, published 2008).

Legend:
Assay in all cases: cell-based or functional assay
HLA-DRB1*0401 = HLA-DRB1*0401 (human)
HLA-DRB1*0101 = HLA-DRB1*0101 (human)
HLA-DRB1*0301 = HLA-DRB1*0301 (human)
HLA-DRB1*0701 = HLA-DRB1*0701 (human)

Responding patients (%) (HLA-DRB1*0401): 28.6% | Responding patients (n = 38) (HLA-DRB1*0401): 2 patients | Responding patients (%) (HLA-DRB1*0101): 28.6% | Responding patients (n = 38) (HLA-DRB1*0101): 2 patients | Responding patients (%) (HLA-DRB1*0301): 10% | Responding patients (n = 38) (HLA-DRB1*0301): 1 patients | Responding patients (%) (HLA-DRB1*0701): 14.3% | Responding patients (n = 38) (HLA-DRB1*0701): 1 patients
B1: NY-ESO-1 peptide, amino acids 134-148 (TIRLTAADHRQLQLS; SEQ ID NO: 2) (peptide)
peptide: TIRLTAADHRQLQLS
